Reference: US20120288914A1, “CRYSTAL STRUCTURE OF GLYPHOSATE ACETYLTRANSFERASE (GLYAT) AND METHODS OF USE” (PIONEER HI BRED INTERNATIONAL INC., priority 2009, published 2012)

Assays:
R7 GLYAT = assay: inhibition of R7 GLYAT with respect to glyphosate; assay type: biochemical, B. licheniformis
Description: See PDB:2JDD for the atomic coordinates and structure factors of the X-ray crystal structure of the ternary complex of R7 GLYAT with AcCoA and 3PG and PDB:2JDC for the atomic coordinates and structure factors of the X-ray crystal structure of the binary complex of R7 GLYAT with oxidized CoA and sulfate bound in the glyphosate binding pocket. See Tables 11 and 12 for the atoms of the R7 GLYAT variant polypeptide and of AcCoA that contact 3PG (i.e., the substrate binding cavity) and the residues of R7 that contact AcCoA, respectively.

[1] = substrate glyphosate; cited from earlier work

Row | Molecule | mode of inhibition (R7 GLYAT) | Km [1]
1 | O=C(O)[C@H](O)COP(=O)(O)O [3-phosphoglycerate] | competitive inhibitor | 
2 | R7: GLYAT variant resulting from seven rounds of DNA shuffling of a native GLYAT polypeptide; SEQ ID NO: 1 (protein, R7 GLYAT variant polypeptide) MIEVKPINAEDTYELRHRILRPNQPIEACMFESDLLRGAFHLGGYYGGKLISIASFHQAEHSELQGQKQYQLRGMATLEGYREQKAGSSLIKHAEEILRKRGADLLWCNARTSASGYYKKLGFSEQGEVFDTPPVGPHILMYKRIT |  | 240 µM
3 | R11: GLYAT variant from the eleventh round of DNA shuffling; SEQ ID NO: 2 (protein, R11 GLYAT variant polypeptide) MIEVKPINAEDTYDLRHRVLRPNQPIEACMFESDLTRSAFHLGGFYGGKLISVASFHQAEHSELQGKKQYQLRGVATLEGYREQKAGSSLVKHAEEILRKRGADMIWCNARTSASGYYRKLGFSEQGEVFDTPPVGPHILMYKRIT |  | 55 µM
4 | native GLYAT: naturally occurring glyphosate N-acetyltransferase from Bacillus licheniformis; SEQ ID NO: 3 (protein, listed as Bacillus licheniformis, ST401 GAT) MIEVKPINAEDTYEIRHRILRPNQPLEACMYETDLLGGAFHLGGYYRGKLISIASFHKAEHSELEGEEQYQLRGMATLEGYREQKAGSTLIRHAEELLRKKGADLLWCNARTSVSGYYEKLGFSEQGEVYDIPPIGPHILMYKKLT |  | 1270 µM
